Consider one substance from publication PMC4865239.

Assay [1] addresses CEACAM-binding Opa protein (OpaCEA) from N. gonorrhoeae, expressed in E. coli (E. coli OpaCEA) (Neisseria gonorrhoeae).
For assay [2], the target named is AfaE-III adhesin of uropathogenic E. coli strain A30 (E. coli AfaE-III) (E. coli (uropathogenic strain A30)).

Consider “GFP-tagged amino-terminal IgV-like domain of human CEA (CEA-N) (domain or fragment)”, for which the results for the bacteria recovered from the urogenital tract 24 h after vaginal infection, CEAtg mice (human CEA on mucosal surfaces) against wildtype mice in assay [1] and in assay [2] were above 30 fold and above 80 fold, respectively.
